Source: patent US20250066745A1, “MUTANTS AND USE THEREOF” (BGI SHENZHEN, priority 2021, published 2025)
Where a chain is given by its changes, count along the chain named. Names and notes keep the numbering of the source.

B1: K66N P84L E102A S103I A104G E110P D123N L124M V138D: Gaussia luciferase mutant (protein)
chain: MGVKVLFALICIAVAEAKPTENNEDFNIVAVASNFATTDLDADRGKLPGKKLPLEVLKEMEANARNAGCTRGCLICLSHIKCTLKMKKFIPGRCHTYEGDKAIGQGGIGPAIVDIPEIPGFKNMEPMEQFIAQVDLCDDCTTGCLKGLANVQCSDLLKKWLPQRCATFASKIQGQVDKIKGAGGD
modifications: SIGNAL (1)..(17)
notes: Gaussia luciferase mutant
B2: A42G Q152H T167G S170T G174N K178S A182Y G183A: Gaussia luciferase mutant (protein)
chain: MGVKVLFALICIAVAEAKPTENNEDFNIVAVASNFATTDLDGDRGKLPGKKLPLEVLKEMEANARKAGCTRGCLICLSHIKCTPKMKKFIPGRCHTYEGDKESAQGGIGEAIVDIPEIPGFKDLEPMEQFIAQVDLCVDCTTGCLKGLANVHCSDLLKKWLPQRCAGFATKIQNQVDSIKGYAGD
modifications: SIGNAL (1)..(17)
notes: Gaussia luciferase mutant
B3: K66R H79K P84K E102D S103I A104G L124M V138E: Gaussia luciferase mutant (protein)
chain: B1 chain with N66R, H79K, L84K, A102D, P110E, N123D, D138E
modifications: SIGNAL (1)..(17)
notes: Gaussia luciferase mutant
B4: K66R P84A E102K A104G E110A L124M V138E: Gaussia luciferase mutant (protein)
chain: B1 chain with N66R, L84A, A102K, I103S, P110A, N123D, D138E
modifications: SIGNAL (1)..(17)
notes: Gaussia luciferase mutant
B5: N27D V29Y A30G V31L A32V S33K A36D L40V: Gaussia luciferase mutant (protein)
chain: MGVKVLFALICIAVAEAKPTENNEDFDIYGLVKNFDTTDVDADRGKLPGKKLPLEVLKEMEANARKAGCTRGCLICLSHIKCTPKMKKFIPGRCHTYEGDKESAQGGIGEAIVDIPEIPGFKDLEPMEQFIAQVDLCVDCTTGCLKGLANVQCSDLLKKWLPQRCATFASKIQGQVDKIKGAGGD
modifications: SIGNAL (1)..(17)
notes: Gaussia luciferase mutant
B6: N27Y V29G A30D V31L A32V S33V A36G T37D L40F Y97*: Gaussia luciferase mutant (protein)
chain: MGVKVLFALICIAVAEAKPTENNEDFYIGDLVVNFGDTDFDADRGKLPGKKLPLEVLKEMEANARKAGCTRGCLICLSHIKCTPKMKKFIPGRCHTEGDKESAQGGIGEAIVDIPEIPGFKDLEPMEQFIAQVDLCVDCTTGCLKGLANVQCSDLLKKWLPQRCATFASKIQGQVDKIKGAGGD
modifications: SIGNAL (1)..(17)
notes: Gaussia luciferase mutant
B7: P53L: Gaussia luciferase mutant (protein)
chain: B5 chain with D27N, Y29V, G30A, L31V, V32A, K33S, D36A, V40L, P53L
modifications: SIGNAL (1)..(17)
notes: Gaussia luciferase mutant
B8: P84A E102A S103I D123L V138D: Gaussia luciferase mutant (protein)
chain: B1 chain with N66K, L84A, G104A, P110E, N123L, M124L
modifications: SIGNAL (1)..(17)
notes: Gaussia luciferase mutant
B9: P84A E102A S103I E110P D123N: Gaussia luciferase mutant (protein)
chain: B1 chain with N66K, L84A, G104A, M124L, D138V
modifications: SIGNAL (1)..(17)
notes: Gaussia luciferase mutant
B10: P84K E102A: Gaussia luciferase mutant (protein)
chain: B1 chain with N66K, L84K, I103S, G104A, P110E, N123D, M124L, D138V
modifications: SIGNAL (1)..(17)
notes: Gaussia luciferase mutant
B11: P84K E102K S103I E110P L124M V138D: Gaussia luciferase mutant (protein)
chain: B1 chain with N66K, L84K, A102K, G104A, N123D
modifications: SIGNAL (1)..(17)
notes: Gaussia luciferase mutant
B12: Q152H Q163D S170N G174S Q175E D177S A182Y: Gaussia luciferase mutant (protein)
chain: B2 chain with G42A, Q163D, G167T, T170N, N174S, Q175E, D177S, S178K, A183G
modifications: SIGNAL (1)..(17)
notes: Gaussia luciferase mutant
B13: Q152H Q163D T167G S170V G174K Q175E K178N: Gaussia luciferase mutant (protein)
chain: B2 chain with G42A, Q163D, T170V, N174K, Q175E, S178N, Y182A, A183G
modifications: SIGNAL (1)..(17)
notes: Gaussia luciferase mutant
B14: Q152H Q163D T167S S170D G174K Q175E K178S A182Y G183N: Gaussia luciferase mutant (protein)
chain: B2 chain with G42A, Q163D, G167S, T170D, N174K, Q175E, A183N
modifications: SIGNAL (1)..(17)
notes: Gaussia luciferase mutant
B15: Q152H Q163D T167S S170N G174K A182L G183N: Gaussia luciferase mutant (protein)
chain: B2 chain with G42A, Q163D, G167S, T170N, N174K, S178K, Y182L, A183N
modifications: SIGNAL (1)..(17)
notes: Gaussia luciferase mutant

Test: Luminescence activity assay of purified Gaussia luciferase mutants on coelenterazine
Assay type: biochemical
Set-up: key to Activity of mutant relative to wild-type Gaussia luciferase without the signal peptide: ratio of mutant luminescence intensity to wild-type Gaussia luciferase
Settings: Substrate CTZ (Table 16)
Procedure, shortened: (§1)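 Readout: luminescence intensity, as ratio to signal-peptide-free wild-type enzyme. Enzyme 1 μg/mL, substrate 100 μM stock, 10 μL + 90 μL; buffer 50 mM Tris-HCl pH 8.0, 100 mM NaCl, 0.1% Tween-20.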
For B1, the “Activity of mutant relative to wild-type Gaussia luciferase without the signal peptide” value was 0.513. In the case of B2, the “Activity of mutant relative to wild-type Gaussia luciferase without the signal peptide” value is reported as 0.568. For B3, the “Activity of mutant relative to wild-type Gaussia luciferase without the signal peptide” value was 0.407. In the case of B4, the “Activity of mutant relative to wild-type Gaussia luciferase without the signal peptide” value is reported as 1.073. For B5, the “Activity of mutant relative to wild-type Gaussia luciferase without the signal peptide” value was 0.146. With B6 the “Activity of mutant relative to wild-type Gaussia luciferase without the signal peptide” value was 0.000. In the case of B7, the “Activity of mutant relative to wild-type Gaussia luciferase without the signal peptide” value is reported as 0.007. In the case of B8, the “Activity of mutant relative to wild-type Gaussia luciferase without the signal peptide” value is reported as 0.473. With B9 the “Activity of mutant relative to wild-type Gaussia luciferase without the signal peptide” value was 1.343. For B10, the “Activity of mutant relative to wild-type Gaussia luciferase without the signal peptide” value was 0.000. In the case of B11, the “Activity of mutant relative to wild-type Gaussia luciferase without the signal peptide” value is reported as 0.036. For B12, the “Activity of mutant relative to wild-type Gaussia luciferase without the signal peptide” value was 1.007. For B13, the “Activity of mutant relative to wild-type Gaussia luciferase without the signal peptide” value was 1.749. For B14, the “Activity of mutant relative to wild-type Gaussia luciferase without the signal peptide” value was 0.383. For B15, the “Activity of mutant relative to wild-type Gaussia luciferase without the signal peptide” value was 0.144.

Test: Luminescence activity assay of purified Gaussia luciferase mutants on fluoro-coelenterazine
Assay type: biochemical
Set-up: key to Activity of mutant relative to wild-type Gaussia luciferase without the signal peptide: ratio of mutant luminescence intensity to wild-type Gaussia luciferase
Settings: Substrate f-CTZ (Table 16)
Procedure: In this Example, the protein concentration was determined with a BCA quantitative kit (Thermo Scientific™ Pierce™ BCA Protein Assay Kit) accurately. The purified luciferase obtained in Example 5 was diluted with diluent (50 mM Tris-HCl, pH 8.0, 100 mM NaCl, 0.1% (v/v) Tween-20) to 1 μg/mL. The diluted luciferase, taken for 10 μL, was moved into a black 96-well plate, then added with 90 μL of the substrates coelenterazine, fluoro-coelenterazine or coelenterazine derivative ZS2 (purchased from Biolab) which was diluted into 100 μM with the same diluent, and the luminescence intensity of the plate was read with a self-luminescence module of a microplate reader. The mutation site of the mutant, the measured luminescence intensity, the ratio of luminescence intensities of the advantageous mutants to the wild-type Gaussia luciferase without the signal peptide having the sequence shown in SEQ ID NO: 3 are shown in Table 15. The results of catalytic activity assay of the advantageous mutants relative to the wild-type Gaussia luciferase without the signal peptide having the sequence shown in SEQ ID NO: 3 on substrate coelenterazine are shown in FIG. 6. […] The results of catalytic activity assay of the advantageous mutants relative to the wild-type Gaussia luciferase without the signal peptide having the sequence shown in SEQ ID NO: 3 on substrate fluoro-coelenterazine are shown in FIG. 7.
The new mutant library constructed in Example 7 was screened and tested for substrate specificity. Expression and purification schemes were the same as that in Example 5, and the activity assay scheme was the same as that in Example 6. The respective catalytic activities of combinatorial mutants on coelenterazine, fluoro-coelenterazine or coelenterazine derivative ZS2, and coelenterazine derivative ZS26 (purchased from BIOLAB) were assayed, and comparisons among the substrate specificities of the combinatorial mutants were based on the ratios of catalytic activities on two corresponding substrates.
In the case of B1, the “Activity of mutant relative to wild-type Gaussia luciferase without the signal peptide” value is reported as 5.207. In the case of B2, the “Activity of mutant relative to wild-type Gaussia luciferase without the signal peptide” value is reported as 0.657. For B3, the “Activity of mutant relative to wild-type Gaussia luciferase without the signal peptide” value was 0.857. For B4, the “Activity of mutant relative to wild-type Gaussia luciferase without the signal peptide” value was 10.315. With B5 the “Activity of mutant relative to wild-type Gaussia luciferase without the signal peptide” value was 0.155. For B6, the “Activity of mutant relative to wild-type Gaussia luciferase without the signal peptide” value was 0.009. With B7 the “Activity of mutant relative to wild-type Gaussia luciferase without the signal peptide” value was 0.010. For B8, the “Activity of mutant relative to wild-type Gaussia luciferase without the signal peptide” value was 0.991. In the case of B9, the “Activity of mutant relative to wild-type Gaussia luciferase without the signal peptide” value is reported as 1.802. For B10, the “Activity of mutant relative to wild-type Gaussia luciferase without the signal peptide” value was 0.009. In the case of B11, the “Activity of mutant relative to wild-type Gaussia luciferase without the signal peptide” value is reported as 3.010. In the case of B12, the “Activity of mutant relative to wild-type Gaussia luciferase without the signal peptide” value is reported as 0.404. With B13 the “Activity of mutant relative to wild-type Gaussia luciferase without the signal peptide” value was 0.215. With B14 the “Activity of mutant relative to wild-type Gaussia luciferase without the signal peptide” value was 0.509. For B15, the “Activity of mutant relative to wild-type Gaussia luciferase without the signal peptide” value was 0.234.

Test: Luminescence activity assay of purified Gaussia luciferase mutants on coelenterazine derivative ZS2
Assay type: biochemical
Set-up: key to Activity of mutant relative to wild-type Gaussia luciferase without the signal peptide: ratio of mutant luminescence intensity to wild-type Gaussia luciferase
Settings: Substrate ZS2 (Table 16)
Procedure, shortened: as §1
In the case of B1, the “Activity of mutant relative to wild-type Gaussia luciferase without the signal peptide” value is reported as 0.041. For B2, the “Activity of mutant relative to wild-type Gaussia luciferase without the signal peptide” value was 0.001. With B3 the “Activity of mutant relative to wild-type Gaussia luciferase without the signal peptide” value was 0.459. In the case of B4, the “Activity of mutant relative to wild-type Gaussia luciferase without the signal peptide” value is reported as 2.637. In the case of B5, the “Activity of mutant relative to wild-type Gaussia luciferase without the signal peptide” value is reported as 0.120. For B6, the “Activity of mutant relative to wild-type Gaussia luciferase without the signal peptide” value was 0.001. With B7 the “Activity of mutant relative to wild-type Gaussia luciferase without the signal peptide” value was 0.002. With B8 the “Activity of mutant relative to wild-type Gaussia luciferase without the signal peptide” value was 0.825. With B9 the “Activity of mutant relative to wild-type Gaussia luciferase without the signal peptide” value was 1.409. For B10, the “Activity of mutant relative to wild-type Gaussia luciferase without the signal peptide” value was 0.001. With B11 the “Activity of mutant relative to wild-type Gaussia luciferase without the signal peptide” value was 0.536. For B12, the “Activity of mutant relative to wild-type Gaussia luciferase without the signal peptide” value was 0.347. For B13, the “Activity of mutant relative to wild-type Gaussia luciferase without the signal peptide” value was 0.862. With B14 the “Activity of mutant relative to wild-type Gaussia luciferase without the signal peptide” value was 0.068. For B15, the “Activity of mutant relative to wild-type Gaussia luciferase without the signal peptide” value was 0.159.
